# Measured values: publication PMC7948503, “Optimization of a peptide ligand for the adhesion GPCR ADGRG2 provides a potent tool to explore receptor biology” (The Journal of Biological Chemistry, 2020)
# Non-standard residues stand in square brackets, D forms with d. Primed or numbered codes have the meaning given here. No end group written: not given here. Phe(4-Me) = Cc1ccc(C[C@H](N)C(=O)O)cc1; FITC′ = not defined here
# How the values were obtained:
# Assay in all cases: FRET or BRET; HEK293 cells transfected with Rluc-ADGRG2-ΔGPS-β WT or mutants, stimulated by increasing concentrations of FITC-conjugated VPM-p15; saturation curves fitted with GraphPad; each experiment repeated 6 times
# Conditions in all cases: one partner purified
# Rluc-ADGRG2-ΔGPS-β F829A = biological target: T1, Rluc-ADGRG2-ΔGPS-β F829A (mouse, UniProt Q8CJ12-3 38-995, F829A)
# T1 construct: ADGRG2 (GPR64), mouse, ADGRG2-ΔGPS-β: the entire ECD removed; source: HEK293, transfected, on cells; not shown: Rluc, N-terminal, kept
# Rluc-ADGRG2-ΔGPS-β F828A = biological target: T2, Rluc-ADGRG2-ΔGPS-β F828A (mouse, UniProt Q8CJ12-3 38-995, F828A)
# T2 construct: ADGRG2 (GPR64), mouse, ADGRG2-ΔGPS-β: the entire ECD removed; source: HEK293, transfected, on cells; not shown: Rluc, N-terminal, kept
# [1] = biological target: T3, Rluc-ADGRG2-ΔGPS-β wildtype (mouse, UniProt Q8CJ12-3 38-995)
# T3 construct: also called WT; ADGRG2-ΔGPS-β WT; source: HEK293, transfected, on cells; not shown: Rluc, N-terminal, kept
# Rluc-ADGRG2-ΔGPS-β I844A = biological target: T4, Rluc-ADGRG2-ΔGPS-β I844A (mouse, UniProt Q8CJ12-3 38-995, I844A)
# T4 construct: ADGRG2 (GPR64), mouse, ADGRG2-ΔGPS-β: the entire ECD removed; source: HEK293, transfected, on cells; not shown: Rluc, N-terminal, kept
# Rluc-ADGRG2-ΔGPS-β I741A = biological target: T5, Rluc-ADGRG2-ΔGPS-β I741A (mouse, UniProt Q8CJ12-3 38-995, I741A)
# T5 construct: ADGRG2 (GPR64), mouse, ADGRG2-ΔGPS-β: the entire ECD removed; also called F741A (as the methods list it); source: HEK293, transfected, on cells; not shown: Rluc, N-terminal, kept
# Rluc-ADGRG2-ΔGPS-β I730A = biological target: T6, Rluc-ADGRG2-ΔGPS-β I730A (mouse, UniProt Q8CJ12-3 38-995, I730A)
# T6 construct: ADGRG2 (GPR64), mouse, ADGRG2-ΔGPS-β: the entire ECD removed; source: HEK293, transfected, on cells; not shown: Rluc, N-terminal, kept
# Rluc-ADGRG2-ΔGPS-β Y765A = biological target: T7, Rluc-ADGRG2-ΔGPS-β Y765A (mouse, UniProt Q8CJ12-3 38-995, Y765A)
# T7 construct: ADGRG2 (GPR64), mouse, ADGRG2-ΔGPS-β: the entire ECD removed; source: HEK293, transfected, on cells; not shown: Rluc, N-terminal, kept
# Rluc-ADGRG2-ΔGPS-β L665A = biological target: T8, Rluc-ADGRG2-ΔGPS-β L665A (mouse, UniProt Q8CJ12-3 38-995, L665A)
# T8 construct: ADGRG2 (GPR64), mouse, ADGRG2-ΔGPS-β: the entire ECD removed; source: HEK293, transfected, on cells; not shown: Rluc, N-terminal, kept
# Rluc-ADGRG2-ΔGPS-β V762A = biological target: T9, Rluc-ADGRG2-ΔGPS-β V762A (mouse, UniProt Q8CJ12-3 38-995, V762A)
# T9 construct: ADGRG2 (GPR64), mouse, ADGRG2-ΔGPS-β: the entire ECD removed; source: HEK293, transfected, on cells; not shown: Rluc, N-terminal, kept
# Rluc-ADGRG2-ΔGPS-β N667A = biological target: T10, Rluc-ADGRG2-ΔGPS-β N667A (mouse, UniProt Q8CJ12-3 38-995, N667A)
# T10 construct: ADGRG2 (GPR64), mouse, ADGRG2-ΔGPS-β: the entire ECD removed; source: HEK293, transfected, on cells; not shown: Rluc, N-terminal, kept
# Rluc-ADGRG2-ΔGPS-β W662A = biological target: T11, Rluc-ADGRG2-ΔGPS-β W662A (mouse, UniProt Q8CJ12-3 38-995, W662A)
# T11 construct: ADGRG2 (GPR64), mouse, ADGRG2-ΔGPS-β: the entire ECD removed; source: HEK293, transfected, on cells; not shown: Rluc, N-terminal, kept
# Rluc-ADGRG2-ΔGPS-β V836A = biological target: T12, Rluc-ADGRG2-ΔGPS-β V836A (mouse, UniProt Q8CJ12-3 38-995, V836A)
# T12 construct: ADGRG2 (GPR64), mouse, ADGRG2-ΔGPS-β: the entire ECD removed; source: HEK293, transfected, on cells; not shown: Rluc, N-terminal, kept
# T12 sequence (Q8CJ12 other isoform, or with tags, fused parts or gaps V836A | V836A | V836A V836A): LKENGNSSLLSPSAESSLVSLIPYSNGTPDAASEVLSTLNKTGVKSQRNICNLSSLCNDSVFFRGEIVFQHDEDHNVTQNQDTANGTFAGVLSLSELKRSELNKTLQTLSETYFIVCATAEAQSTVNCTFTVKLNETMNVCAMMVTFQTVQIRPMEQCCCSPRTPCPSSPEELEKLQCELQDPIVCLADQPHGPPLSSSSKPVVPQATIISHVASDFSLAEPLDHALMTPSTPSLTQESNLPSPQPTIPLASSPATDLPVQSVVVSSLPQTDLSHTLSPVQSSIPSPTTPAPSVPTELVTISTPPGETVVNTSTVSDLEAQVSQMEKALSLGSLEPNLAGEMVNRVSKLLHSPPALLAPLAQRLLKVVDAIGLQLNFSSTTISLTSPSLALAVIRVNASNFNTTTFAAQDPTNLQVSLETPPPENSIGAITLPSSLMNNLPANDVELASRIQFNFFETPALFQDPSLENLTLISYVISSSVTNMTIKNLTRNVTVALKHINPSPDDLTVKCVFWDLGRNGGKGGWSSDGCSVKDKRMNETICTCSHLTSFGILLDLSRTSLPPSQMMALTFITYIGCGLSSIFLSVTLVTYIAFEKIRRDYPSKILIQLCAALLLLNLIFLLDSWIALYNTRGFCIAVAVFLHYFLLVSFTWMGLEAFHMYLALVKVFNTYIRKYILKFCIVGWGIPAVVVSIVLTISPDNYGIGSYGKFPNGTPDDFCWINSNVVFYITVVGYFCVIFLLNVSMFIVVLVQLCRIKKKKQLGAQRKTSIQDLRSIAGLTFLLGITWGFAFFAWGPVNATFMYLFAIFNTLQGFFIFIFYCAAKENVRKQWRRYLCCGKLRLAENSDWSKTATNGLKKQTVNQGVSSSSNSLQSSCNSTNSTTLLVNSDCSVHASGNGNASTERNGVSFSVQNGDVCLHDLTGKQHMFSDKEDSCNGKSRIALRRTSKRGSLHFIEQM
# T10 sequence (Q8CJ12 other isoform, or with tags, fused parts or gaps N667A | N667A | N667A N667A): as the sequence (Q8CJ12 other isoform, or with tags, fused parts or gaps V836A | V836A | V836A V836A) above, with N630A, A799V counted along it
# T11 sequence (Q8CJ12 other isoform, or with tags, fused parts or gaps W662A | W662A | W662A W662A): as the sequence (Q8CJ12 other isoform, or with tags, fused parts or gaps V836A | V836A | V836A V836A) above, with W625A, A799V counted along it
# T8 sequence (Q8CJ12 other isoform, or with tags, fused parts or gaps L665A | L665A | L665A L665A): as the sequence (Q8CJ12 other isoform, or with tags, fused parts or gaps V836A | V836A | V836A V836A) above, with L628A, A799V counted along it
# T6 sequence (Q8CJ12 other isoform, or with tags, fused parts or gaps I730A | I730A | I730A I730A): as the sequence (Q8CJ12 other isoform, or with tags, fused parts or gaps V836A | V836A | V836A V836A) above, with I693A, A799V counted along it
# T9 sequence (Q8CJ12 other isoform, or with tags, fused parts or gaps V762A | V762A | V762A V762A): as the sequence (Q8CJ12 other isoform, or with tags, fused parts or gaps V836A | V836A | V836A V836A) above, with V725A, A799V counted along it
# T1 sequence (Q8CJ12 other isoform, or with tags, fused parts or gaps F829A | F829A | F829A F829A): as the sequence (Q8CJ12 other isoform, or with tags, fused parts or gaps V836A | V836A | V836A V836A) above, with F792A, A799V counted along it
# T7 sequence (Q8CJ12 other isoform, or with tags, fused parts or gaps Y765A | Y765A | Y765A Y765A): as the sequence (Q8CJ12 other isoform, or with tags, fused parts or gaps V836A | V836A | V836A V836A) above, with Y728A, A799V counted along it
# T5 sequence (Q8CJ12 other isoform, or with tags, fused parts or gaps I741A | I741A | I741A I741A): as the sequence (Q8CJ12 other isoform, or with tags, fused parts or gaps V836A | V836A | V836A V836A) above, with I704A, A799V counted along it
# T3 sequence (Q8CJ12 other isoform, or with tags, fused parts or gaps mutant): as the sequence (Q8CJ12 other isoform, or with tags, fused parts or gaps V836A | V836A | V836A V836A) above, with A799V counted along it
# T2 sequence (Q8CJ12 other isoform, or with tags, fused parts or gaps F828A | F828A | F828A F828A): as the sequence (Q8CJ12 other isoform, or with tags, fused parts or gaps V836A | V836A | V836A V836A) above, with F791A, A799V counted along it
# T4 sequence (Q8CJ12 other isoform, or with tags, fused parts or gaps I844A | I844A | I844A I844A): as the sequence (Q8CJ12 other isoform, or with tags, fused parts or gaps V836A | V836A | V836A V836A) above, with A799V, I807A counted along it
binder,measurement,setting,value
VS[Phe(4-Me)]GILLDLSRTSLP-{FITC′} [FITC-conjugated VPM-p15 (ADGRG2 Stachel peptide p15 T1V/F3Phe(4-Me))],EC50,Rluc-ADGRG2-ΔGPS-β F829A,323 nM
same,EC50,Rluc-ADGRG2-ΔGPS-β F828A,1170 nM
same,EC50,[1],936 nM
same,EC50,Rluc-ADGRG2-ΔGPS-β I844A,1540 nM
same,EC50,Rluc-ADGRG2-ΔGPS-β I741A,669 nM
same,EC50,Rluc-ADGRG2-ΔGPS-β I730A,1200 nM
same,EC50,Rluc-ADGRG2-ΔGPS-β Y765A,905 nM
same,EC50,Rluc-ADGRG2-ΔGPS-β L665A,796 nM
same,EC50,Rluc-ADGRG2-ΔGPS-β V762A,1190 nM
same,EC50,Rluc-ADGRG2-ΔGPS-β N667A,913 nM
same,EC50,Rluc-ADGRG2-ΔGPS-β W662A,1060 nM
same,EC50,Rluc-ADGRG2-ΔGPS-β V836A,1230 nM
